This note sets out measurements from PMC3217041 (Steroids, 2011).

The series concerns the molecule itself. As to the kind of experiment: crystal structure.

B1: Human placental aromatase (cytochrome P450 aromatase, CYP19A1) (enzyme, UniProt P11511 1-503, looked up)
chain: MVLEMLNPIHYNITSIVPEAMPAATMPVLLLTGLFLLVWNYEGTSSIPGPGYCMGIGPLISHGRFLWMGIGSACNYYNRVYGEFMRVWISGEETLIISKSSSMFHIMKHNHYSSRFGSKLGLQCIGMHEKGIIFNNNPELWKTTRPFFMKALSGPGLVRMVTVCAESLKTHLDRLEEVTNESGYVDVLTLLRRVMLDTSNTLFLRIPLDESAIVVKIQGYFDAWQALLIKPDIFFKISWLYKKYEKSVKDLKDAIEVLIAEKRRRISTEEKLEECMDFATELILAEKRGDLTRENVNQCILEMLIAAPDTMSVSLFFMLFLIAKHPNVEEAIIKEIQTVIGERDIKIDDIQKLKVMENFIYESMRYQPVVDLVMRKALEDDVIDGYPVKKGTNIILNIGRMHRLEFFPKPNEFTLENFAKNVPYRYFQPFGFGPRGCAGKYIAMVMMKAILVTLLRRFHVKTLQGQCVESIQKIHDLSLHPDETKNMLEMIFTPRNSDRCLEH
As to B1, the binding result is “binds”.
